Experimental data reported in the supplement of paper PMC10065799, “High-throughput profiling of sequence recognition by tyrosine kinases and SH2 domains using bacterial peptide display” (eLife, 2023).

Assays:
MERTK = MERTK (UniProt Q12866); assay: phosphorylation enrichment, bacterial display (enrichment ratio); higher = better substrate or ligand; peptides without Tyr show the background
Hck = Hck (UniProt P08631); assay: as above
EPHB2 = EPHB2 (UniProt P29323); assay: as above
Fes = Fes (UniProt P07332); assay: as above
Jak2 = Jak2 (UniProt O60674); assay: as above
c-Abl (mouse) = assay: as above
FGFR1 = FGFR1 (UniProt P11362); assay: as above
Fer (mouse) = assay: as above
Fyn = Fyn (UniProt P06241); assay: as above
AncSZ = assay: as above
FGFR3 = FGFR3 (UniProt P22607); assay: as above
EPHB1 = EPHB1 (UniProt P54762); assay: as above
c-Src = assay: as above
Grb2 SH2 = Grb2 SH2 (UniProt P62993); assay: SH2 binding enrichment of the phosphorylated peptide, bacterial display (enrichment ratio); higher = better substrate or ligand; peptides without Tyr show the background
c-Src SH2 = assay: as above
SHP2-C SH2 = assay: as above
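For SH2 binding enrichment of the phosphorylated peptide, bacterial display in this document: peptide library displayed on the E. coli surface as eCPX fusions, selected cells deep-sequenced, score is each peptide's frequency after selection divided by its frequency in the input.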
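For phosphorylation enrichment, bacterial display in this document: 11-residue human phosphosite peptides and single-mutation variants displayed on the E. coli surface, counted by deep sequencing, each peptide's frequency after selection divided by its frequency in the unselected input library; frequency after pTyr selection over input frequency; kinase dosed for 20-30% of maximal phosphorylation in three min.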

Chain of Grb2 SH2 (P62993 whole entry, looked up): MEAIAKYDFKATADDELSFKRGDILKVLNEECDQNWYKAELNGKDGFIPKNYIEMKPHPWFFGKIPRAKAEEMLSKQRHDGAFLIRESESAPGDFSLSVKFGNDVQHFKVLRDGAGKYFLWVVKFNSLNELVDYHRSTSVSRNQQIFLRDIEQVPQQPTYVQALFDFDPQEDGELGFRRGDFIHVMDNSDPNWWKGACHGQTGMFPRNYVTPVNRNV
Chain of Fyn (P06241 whole entry, looked up): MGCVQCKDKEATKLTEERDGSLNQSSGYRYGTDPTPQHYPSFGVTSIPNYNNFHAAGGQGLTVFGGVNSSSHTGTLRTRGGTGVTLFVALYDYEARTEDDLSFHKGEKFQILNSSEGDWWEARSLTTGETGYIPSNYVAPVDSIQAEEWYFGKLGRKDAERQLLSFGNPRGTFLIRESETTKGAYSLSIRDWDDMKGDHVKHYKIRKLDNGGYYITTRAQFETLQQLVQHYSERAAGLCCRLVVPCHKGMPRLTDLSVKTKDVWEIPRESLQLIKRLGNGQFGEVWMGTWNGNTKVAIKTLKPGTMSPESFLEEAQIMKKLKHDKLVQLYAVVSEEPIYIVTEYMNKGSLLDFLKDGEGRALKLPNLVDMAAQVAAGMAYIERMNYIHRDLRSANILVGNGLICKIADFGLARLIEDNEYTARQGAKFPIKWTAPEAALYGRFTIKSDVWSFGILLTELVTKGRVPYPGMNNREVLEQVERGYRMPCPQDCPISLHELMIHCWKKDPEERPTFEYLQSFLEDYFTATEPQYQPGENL
Chain of MERTK (Q12866 whole entry, looked up): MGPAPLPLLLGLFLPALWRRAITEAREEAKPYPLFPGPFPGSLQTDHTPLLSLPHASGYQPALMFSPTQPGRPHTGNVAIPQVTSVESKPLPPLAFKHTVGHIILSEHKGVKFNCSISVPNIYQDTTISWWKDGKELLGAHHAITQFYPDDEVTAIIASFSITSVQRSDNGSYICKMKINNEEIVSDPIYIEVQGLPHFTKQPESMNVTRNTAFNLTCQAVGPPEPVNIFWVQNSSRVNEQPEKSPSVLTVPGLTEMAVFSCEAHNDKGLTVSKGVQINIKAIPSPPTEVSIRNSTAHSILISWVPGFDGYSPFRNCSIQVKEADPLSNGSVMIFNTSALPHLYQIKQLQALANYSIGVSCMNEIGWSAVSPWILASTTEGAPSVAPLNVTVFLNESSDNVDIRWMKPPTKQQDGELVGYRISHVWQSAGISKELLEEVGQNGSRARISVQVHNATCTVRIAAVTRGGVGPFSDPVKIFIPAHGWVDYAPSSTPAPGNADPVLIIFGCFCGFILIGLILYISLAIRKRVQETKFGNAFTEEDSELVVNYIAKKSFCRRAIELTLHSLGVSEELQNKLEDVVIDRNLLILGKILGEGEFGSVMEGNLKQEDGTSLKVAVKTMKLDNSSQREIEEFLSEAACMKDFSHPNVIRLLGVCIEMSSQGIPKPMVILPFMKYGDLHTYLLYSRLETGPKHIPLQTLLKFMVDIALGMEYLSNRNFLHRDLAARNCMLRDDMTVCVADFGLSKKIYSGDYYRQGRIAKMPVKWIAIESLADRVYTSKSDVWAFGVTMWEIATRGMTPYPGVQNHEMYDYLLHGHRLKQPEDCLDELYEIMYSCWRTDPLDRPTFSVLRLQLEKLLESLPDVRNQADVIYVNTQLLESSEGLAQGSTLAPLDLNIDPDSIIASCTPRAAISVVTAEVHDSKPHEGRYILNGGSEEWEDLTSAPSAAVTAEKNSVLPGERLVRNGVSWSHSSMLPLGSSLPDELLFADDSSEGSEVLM
Chain of Fes (P07332 whole entry, looked up): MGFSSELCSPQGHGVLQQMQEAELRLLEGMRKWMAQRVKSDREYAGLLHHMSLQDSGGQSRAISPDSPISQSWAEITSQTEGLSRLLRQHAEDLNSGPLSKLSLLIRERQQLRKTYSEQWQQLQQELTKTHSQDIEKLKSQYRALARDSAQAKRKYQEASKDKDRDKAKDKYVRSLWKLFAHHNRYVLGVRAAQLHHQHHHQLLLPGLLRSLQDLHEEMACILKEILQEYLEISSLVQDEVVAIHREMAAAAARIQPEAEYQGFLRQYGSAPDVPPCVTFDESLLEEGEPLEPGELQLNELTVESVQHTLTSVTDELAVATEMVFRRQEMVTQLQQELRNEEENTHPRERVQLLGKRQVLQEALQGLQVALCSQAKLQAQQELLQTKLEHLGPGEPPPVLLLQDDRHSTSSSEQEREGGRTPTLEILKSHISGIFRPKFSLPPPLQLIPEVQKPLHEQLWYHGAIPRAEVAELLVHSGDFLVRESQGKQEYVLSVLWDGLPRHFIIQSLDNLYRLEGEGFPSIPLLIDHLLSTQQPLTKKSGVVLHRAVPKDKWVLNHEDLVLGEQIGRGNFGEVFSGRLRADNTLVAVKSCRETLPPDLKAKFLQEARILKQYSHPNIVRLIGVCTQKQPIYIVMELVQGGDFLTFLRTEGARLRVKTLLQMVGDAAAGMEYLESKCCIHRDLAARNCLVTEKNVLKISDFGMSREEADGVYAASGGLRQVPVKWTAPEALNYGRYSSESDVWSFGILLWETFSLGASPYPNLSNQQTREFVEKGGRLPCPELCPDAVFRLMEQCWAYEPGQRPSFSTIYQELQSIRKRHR
Chain of FGFR3 (P22607 whole entry, looked up): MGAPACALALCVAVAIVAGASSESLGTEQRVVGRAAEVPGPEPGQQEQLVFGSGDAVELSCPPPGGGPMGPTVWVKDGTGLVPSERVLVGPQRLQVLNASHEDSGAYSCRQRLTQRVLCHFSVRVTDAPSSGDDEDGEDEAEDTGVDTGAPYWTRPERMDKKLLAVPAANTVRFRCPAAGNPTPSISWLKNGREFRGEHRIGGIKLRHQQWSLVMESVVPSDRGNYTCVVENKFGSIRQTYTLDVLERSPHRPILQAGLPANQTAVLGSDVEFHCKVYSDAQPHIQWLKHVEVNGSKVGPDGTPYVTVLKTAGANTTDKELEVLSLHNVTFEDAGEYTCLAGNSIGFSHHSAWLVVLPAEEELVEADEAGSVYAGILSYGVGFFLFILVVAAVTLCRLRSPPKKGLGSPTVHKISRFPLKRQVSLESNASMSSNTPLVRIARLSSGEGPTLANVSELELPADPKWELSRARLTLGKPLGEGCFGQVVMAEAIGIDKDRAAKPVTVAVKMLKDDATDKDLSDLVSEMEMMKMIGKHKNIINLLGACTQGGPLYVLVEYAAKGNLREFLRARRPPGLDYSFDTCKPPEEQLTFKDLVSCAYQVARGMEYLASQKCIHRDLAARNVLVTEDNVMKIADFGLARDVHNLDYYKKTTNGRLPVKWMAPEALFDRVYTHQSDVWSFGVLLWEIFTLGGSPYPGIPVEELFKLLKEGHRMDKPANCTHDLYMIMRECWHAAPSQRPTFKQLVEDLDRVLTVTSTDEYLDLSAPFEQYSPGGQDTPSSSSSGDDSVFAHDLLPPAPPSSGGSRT
Chain of EPHB2 (P29323 whole entry, looked up): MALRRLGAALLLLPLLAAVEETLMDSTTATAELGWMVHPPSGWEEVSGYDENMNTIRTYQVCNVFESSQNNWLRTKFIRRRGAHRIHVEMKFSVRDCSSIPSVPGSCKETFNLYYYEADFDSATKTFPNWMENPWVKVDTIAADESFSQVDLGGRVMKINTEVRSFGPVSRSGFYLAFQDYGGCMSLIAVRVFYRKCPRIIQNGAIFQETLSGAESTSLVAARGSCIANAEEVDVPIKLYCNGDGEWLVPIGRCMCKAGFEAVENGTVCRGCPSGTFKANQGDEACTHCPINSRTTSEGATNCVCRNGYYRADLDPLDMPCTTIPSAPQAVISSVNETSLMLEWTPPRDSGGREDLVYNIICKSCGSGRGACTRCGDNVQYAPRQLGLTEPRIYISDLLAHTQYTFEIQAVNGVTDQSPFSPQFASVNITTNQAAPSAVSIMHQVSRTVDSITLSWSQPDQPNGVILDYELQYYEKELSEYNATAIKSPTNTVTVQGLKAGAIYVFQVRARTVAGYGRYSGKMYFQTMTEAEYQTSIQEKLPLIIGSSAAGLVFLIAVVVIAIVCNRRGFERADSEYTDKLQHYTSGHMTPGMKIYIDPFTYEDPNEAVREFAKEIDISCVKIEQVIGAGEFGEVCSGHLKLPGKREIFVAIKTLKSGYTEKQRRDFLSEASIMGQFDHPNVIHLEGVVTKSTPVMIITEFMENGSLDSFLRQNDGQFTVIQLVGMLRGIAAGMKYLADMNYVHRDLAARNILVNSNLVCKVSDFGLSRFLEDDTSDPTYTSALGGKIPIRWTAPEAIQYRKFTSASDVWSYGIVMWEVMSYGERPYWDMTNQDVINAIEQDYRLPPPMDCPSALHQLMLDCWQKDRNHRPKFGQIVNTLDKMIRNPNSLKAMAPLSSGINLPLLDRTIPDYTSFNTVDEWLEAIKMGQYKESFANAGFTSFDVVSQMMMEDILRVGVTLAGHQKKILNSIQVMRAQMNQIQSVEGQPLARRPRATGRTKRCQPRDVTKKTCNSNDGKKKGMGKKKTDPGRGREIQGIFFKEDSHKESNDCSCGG
Chain of Hck (P08631 whole entry, looked up): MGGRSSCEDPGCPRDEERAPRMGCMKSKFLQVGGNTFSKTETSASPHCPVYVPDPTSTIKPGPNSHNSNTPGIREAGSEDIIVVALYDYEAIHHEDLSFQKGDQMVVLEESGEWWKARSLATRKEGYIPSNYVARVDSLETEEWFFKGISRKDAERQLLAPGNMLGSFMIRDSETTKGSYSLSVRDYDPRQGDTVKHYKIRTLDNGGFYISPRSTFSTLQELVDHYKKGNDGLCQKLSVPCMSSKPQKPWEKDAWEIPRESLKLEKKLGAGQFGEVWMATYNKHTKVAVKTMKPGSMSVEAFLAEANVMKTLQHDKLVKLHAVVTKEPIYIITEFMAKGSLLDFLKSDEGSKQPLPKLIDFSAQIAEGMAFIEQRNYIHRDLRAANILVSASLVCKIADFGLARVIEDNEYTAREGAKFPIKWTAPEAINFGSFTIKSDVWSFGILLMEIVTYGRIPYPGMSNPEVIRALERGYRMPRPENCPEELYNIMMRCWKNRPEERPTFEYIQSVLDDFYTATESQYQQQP

KVASVYEAPGF [NT5C_Y65]
phosphorylation enrichment (MERTK): 2.59
phosphorylation enrichment (Hck): 9.28
phosphorylation enrichment (EPHB2): 5.62
phosphorylation enrichment (Fes): 0.903
phosphorylation enrichment (Jak2): 0.609
phosphorylation enrichment (c-Abl (mouse)): 9.41
phosphorylation enrichment (FGFR1): 0.481
phosphorylation enrichment (Fer (mouse)): 6.87
phosphorylation enrichment (Fyn): 7.05
phosphorylation enrichment (AncSZ): 0.973
phosphorylation enrichment (FGFR3): 0.583
phosphorylation enrichment (EPHB1): 3.77
phosphorylation enrichment (c-Src): 5.05
SH2 binding enrichment (Grb2 SH2): 0.948
SH2 binding enrichment (c-Src SH2): 0.645
SH2 binding enrichment (SHP2-C SH2): 0.906

KVGNGYISAAE [CALM2_Y100_D96V]
phosphorylation enrichment (MERTK): 0.42
phosphorylation enrichment (Hck): 0.393
phosphorylation enrichment (EPHB2): 0.468
phosphorylation enrichment (Fes): 0.65
phosphorylation enrichment (Jak2): 0.485
phosphorylation enrichment (c-Abl (mouse)): 0.538
phosphorylation enrichment (FGFR1): 0.456
phosphorylation enrichment (Fer (mouse)): 0.476
phosphorylation enrichment (Fyn): 0.337
phosphorylation enrichment (AncSZ): 0.619
phosphorylation enrichment (FGFR3): 0.588
phosphorylation enrichment (EPHB1): 0.4
phosphorylation enrichment (c-Src): 0.391
SH2 binding enrichment (Grb2 SH2): 0.892
SH2 binding enrichment (c-Src SH2): 0.53
SH2 binding enrichment (SHP2-C SH2): 0.546

KVPAIYGVGTR [CPS1_Y162_D165G]
phosphorylation enrichment (MERTK): 0.527
phosphorylation enrichment (Hck): 5.68
phosphorylation enrichment (EPHB2): 0.391
phosphorylation enrichment (Fes): 0.576
phosphorylation enrichment (Jak2): 0.562
phosphorylation enrichment (c-Abl (mouse)): 0.923
phosphorylation enrichment (FGFR1): 0.362
phosphorylation enrichment (Fer (mouse)): 0.377
phosphorylation enrichment (Fyn): 2.27
phosphorylation enrichment (AncSZ): 0.47
phosphorylation enrichment (FGFR3): 0.402
phosphorylation enrichment (EPHB1): 0.424
phosphorylation enrichment (c-Src): 2.44
SH2 binding enrichment (Grb2 SH2): 0.948
SH2 binding enrichment (c-Src SH2): 0.699
SH2 binding enrichment (SHP2-C SH2): 0.615

KVQVSYKGETK [HSPA1A_Y107]
phosphorylation enrichment (MERTK): 0.387
phosphorylation enrichment (Hck): 0.346
phosphorylation enrichment (EPHB2): 0.449
phosphorylation enrichment (Fes): 0.511
phosphorylation enrichment (Jak2): 0.428
phosphorylation enrichment (c-Abl (mouse)): 0.85
phosphorylation enrichment (FGFR1): 0.429
phosphorylation enrichment (Fer (mouse)): 0.378
phosphorylation enrichment (Fyn): 0.426
phosphorylation enrichment (AncSZ): 0.608
phosphorylation enrichment (FGFR3): 0.432
phosphorylation enrichment (EPHB1): 0.442
phosphorylation enrichment (c-Src): 0.352
SH2 binding enrichment (Grb2 SH2): 0.875
SH2 binding enrichment (c-Src SH2): 0.493
SH2 binding enrichment (SHP2-C SH2): 0.656

KWRGQYDVAIR [BTK_Y425_K430R]
phosphorylation enrichment (MERTK): 0.341
phosphorylation enrichment (Hck): 0.451
phosphorylation enrichment (EPHB2): 0.454
phosphorylation enrichment (Fes): 0.698
phosphorylation enrichment (Jak2): 0.461
phosphorylation enrichment (c-Abl (mouse)): 0.539
phosphorylation enrichment (FGFR1): 0.426
phosphorylation enrichment (Fer (mouse)): 0.512
phosphorylation enrichment (Fyn): 0.446
phosphorylation enrichment (AncSZ): 0.96
phosphorylation enrichment (FGFR3): 0.533
phosphorylation enrichment (EPHB1): 0.498
phosphorylation enrichment (c-Src): 0.389
SH2 binding enrichment (Grb2 SH2): 1.35
SH2 binding enrichment (c-Src SH2): 1.74
SH2 binding enrichment (SHP2-C SH2): 1.57

KWTVDYLSQVG [TYW5_Y48]
phosphorylation enrichment (MERTK): 0.373
phosphorylation enrichment (Hck): 0.462
phosphorylation enrichment (EPHB2): 0.494
phosphorylation enrichment (Fes): 1.05
phosphorylation enrichment (Jak2): 0.887
phosphorylation enrichment (c-Abl (mouse)): 0.635
phosphorylation enrichment (FGFR1): 0.605
phosphorylation enrichment (Fer (mouse)): 0.391
phosphorylation enrichment (Fyn): 0.443
phosphorylation enrichment (AncSZ): 0.953
phosphorylation enrichment (FGFR3): 0.63
phosphorylation enrichment (EPHB1): 0.602
phosphorylation enrichment (c-Src): 0.466
SH2 binding enrichment (Grb2 SH2): 0.886
SH2 binding enrichment (c-Src SH2): 0.549
SH2 binding enrichment (SHP2-C SH2): 0.766

LAARFYNWVCF [FLT4_Y1231_S1235C_YF]
phosphorylation enrichment (MERTK): 1.17
phosphorylation enrichment (Hck): 0.967
phosphorylation enrichment (EPHB2): 1.03
phosphorylation enrichment (Fes): 2.8
phosphorylation enrichment (Jak2): 2.59
phosphorylation enrichment (c-Abl (mouse)): 1.39
phosphorylation enrichment (FGFR1): 1.65
phosphorylation enrichment (Fer (mouse)): 2.79
phosphorylation enrichment (Fyn): 0.849
phosphorylation enrichment (AncSZ): 1.87
phosphorylation enrichment (FGFR3): 2.11
phosphorylation enrichment (EPHB1): 1.33
phosphorylation enrichment (c-Src): 1.21
SH2 binding enrichment (Grb2 SH2): 1.04
SH2 binding enrichment (c-Src SH2): 1.02
SH2 binding enrichment (SHP2-C SH2): 0.982

LAGRFYALKSM [CKB_Y174_YF]
phosphorylation enrichment (MERTK): 0.666
phosphorylation enrichment (Hck): 0.509
phosphorylation enrichment (EPHB2): 0.573
phosphorylation enrichment (Fes): 1.61
phosphorylation enrichment (Jak2): 1.32
phosphorylation enrichment (c-Abl (mouse)): 1.18
phosphorylation enrichment (FGFR1): 0.479
phosphorylation enrichment (Fer (mouse)): 0.46
phosphorylation enrichment (Fyn): 0.463
phosphorylation enrichment (AncSZ): 1.86
phosphorylation enrichment (FGFR3): 0.991
phosphorylation enrichment (EPHB1): 0.677
phosphorylation enrichment (c-Src): 0.461
SH2 binding enrichment (Grb2 SH2): 1.23
SH2 binding enrichment (c-Src SH2): 1.12
SH2 binding enrichment (SHP2-C SH2): 1.11

LARDMYDKEFF [MET_Y1230_YF]
phosphorylation enrichment (MERTK): 0.396
phosphorylation enrichment (Hck): 0.539
phosphorylation enrichment (EPHB2): 0.564
phosphorylation enrichment (Fes): 0.945
phosphorylation enrichment (Jak2): 0.702
phosphorylation enrichment (c-Abl (mouse)): 0.519
phosphorylation enrichment (FGFR1): 0.517
phosphorylation enrichment (Fer (mouse)): 0.464
phosphorylation enrichment (Fyn): 0.507
phosphorylation enrichment (AncSZ): 0.685
phosphorylation enrichment (FGFR3): 0.596
phosphorylation enrichment (EPHB1): 0.515
phosphorylation enrichment (c-Src): 0.382
SH2 binding enrichment (Grb2 SH2): 0.93
SH2 binding enrichment (c-Src SH2): 0.506
SH2 binding enrichment (SHP2-C SH2): 0.643
